{"source": "paper PMC11042868", "key": {"[1]": {"target": "HER2 on SK-BR-3 cells (Homo sapiens) (UniProt P04626)", "assay": "cell binding, NIR fluorescence", "settings": "live cells, 5% FBS, 1 h, live adherent cells (1e4/well), 0.01-10 uM 5'-IRD800 aptamer in growth medium with 5% FBS, 37 C (or 4 C), buffer salt and pH not stated"}, "[2]": {"target": "HER2 on MDA-MB-453 cells (Homo sapiens) (UniProt P04626)", "assay": "cell binding, NIR fluorescence", "settings": "live cells, 5% FBS, 1 h, live adherent cells (1e4/well), 0.01-10 uM 5'-IRD800 aptamer in growth medium with 5% FBS, 37 C (or 4 C), buffer salt and pH not stated"}}, "note": "pKd: −log10 of the molar value.", "data": [{"sequence": "CCGCCCAAACACACGTAAACAGATGAGGAGCCGACACTGGG [HMAP7 (M7)]", "values": [{"measurement": "pKd", "setting": "[1]", "result": 6.46}, {"measurement": "pKd", "setting": "[2]", "result": 6.59}]}]}
